Measured values: patent US20140030278A1

Columns and labels:
[1] = molecular target: Recombinant human TNF-alpha (human) (UniProt P01375); assay: ELISA of unbound rhTNF-alpha after pre-incubation; preparation 2; printed as 4.220e-009 g/ml; conditions: Fc fusion
[2] = molecular target: Recombinant human TNF-alpha (human) (UniProt P01375); assay: ELISA of unbound rhTNF-alpha after pre-incubation; preparation 1; printed as 7.948e-009 g/ml; conditions: Fc fusion

Sequence of Recombinant human TNF-alpha (human) (P01375 77-233): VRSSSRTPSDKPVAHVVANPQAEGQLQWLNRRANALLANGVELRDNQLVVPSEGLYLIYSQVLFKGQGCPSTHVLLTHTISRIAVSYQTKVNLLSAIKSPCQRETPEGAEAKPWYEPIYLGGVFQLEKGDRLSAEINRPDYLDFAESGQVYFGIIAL

- IC50 [1]: 4.22 ng/mL
- IC50 [2]: 7.95 ng/mL
Substance: PEG20-etanercept (5 eq)
